Results: paper PMC3545062 (Structure (London, England : 1993), 2012)
Changes are numbered by the printed parent chain. Names and notes keep the numbering of the source.

How the values were obtained:
[1] = molecular target: Cdc13 OB2 domain L401A (S. cerevisiae) (UniProt P32797); assay: cross-linking
[2] = molecular target: Cdc13 OB2 domain P371S (cdc13-1 mutation) (S. cerevisiae) (UniProt P32797); assay: cross-linking
[3] = molecular target: Cdc13 OB2 domain Y388A (S. cerevisiae) (UniProt P32797); assay: cross-linking
[4] = molecular target: T1, Cdc13 construct consisting of residues 344-924 (domains OB2-DBD-OB4) (S. cerevisiae, UniProt P32797 344-924); assay: ITC
T1 sequence (looked up): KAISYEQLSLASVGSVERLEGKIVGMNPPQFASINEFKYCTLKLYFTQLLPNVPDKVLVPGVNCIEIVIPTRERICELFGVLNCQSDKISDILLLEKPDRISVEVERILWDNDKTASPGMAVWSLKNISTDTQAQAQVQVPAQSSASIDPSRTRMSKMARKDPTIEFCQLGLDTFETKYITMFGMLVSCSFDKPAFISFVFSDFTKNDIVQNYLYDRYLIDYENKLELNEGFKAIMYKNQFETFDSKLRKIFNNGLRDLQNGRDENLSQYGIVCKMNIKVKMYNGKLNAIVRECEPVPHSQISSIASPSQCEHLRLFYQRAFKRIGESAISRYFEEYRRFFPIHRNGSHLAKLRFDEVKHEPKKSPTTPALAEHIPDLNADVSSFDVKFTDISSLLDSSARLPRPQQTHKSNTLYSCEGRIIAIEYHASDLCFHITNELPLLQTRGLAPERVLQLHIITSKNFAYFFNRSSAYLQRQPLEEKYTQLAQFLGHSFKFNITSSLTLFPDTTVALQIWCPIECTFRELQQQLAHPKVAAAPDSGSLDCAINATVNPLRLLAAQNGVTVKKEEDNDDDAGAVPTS

[5] = molecular target: the molecule itself; assay: cross-linking

Q: For “Cdc13 OB2 domain L401A (from UniProt P32797 344-495) (domain or fragment)”, which percent reduction of OB2 dimerization (cross-linking) [1] is on record?
A: 50%

Q: “Cdc13 OB2 domain P371S (cdc13-1 mutation) (from UniProt P32797 344-495) (domain or fragment)” was tested. Which percent reduction of OB2 dimerization (cross-linking) [2] did it give?
A: 78%

Q: With “Cdc13 OB2 domain Y388A (from UniProt P32797 344-495) (domain or fragment)” as the molecule, how does the percent reduction of OB2 dimerization (cross-linking) [3] read?
A: 70%

B1: C-terminal domain of Stn1, residues 311-494 (domain or fragment, S. cerevisiae, UniProt P38960 311-494, looked up)
chain: NRTSAKSNLMLILLGLQMKEISNSDLYKLKEVRSVVTSLASFLFQQQNVGVMKSFDSLEKEAFRDLVNRLVSQGLIGLKDKTSETFDLLPLKNLFEYAEKRISVLMKLQCYTGTVQLSHVQEKLHLPYITTNGIVDVFKECLKRTKKQYPEVLKNWWIDLDPKNGMEDQNSGILLHLEYAAAYS
Q: With B1 as the molecule, how does the Kd [4] read?
A: 6.4 µM

B2: S. cerevisiae Cdc13 OB2 domain, wild type (domain or fragment, UniProt P32797 344-495, looked up)
chain: KAISYEQLSLASVGSVERLEGKIVGMNPPQFASINEFKYCTLKLYFTQLLPNVPDKVLVPGVNCIEIVIPTRERICELFGVLNCQSDKISDILLLEKPDRISVEVERILWDNDKTASPGMAVWSLKNISTDTQAQAQVQVPAQSSASIDPSR
Q: How did the “stoichiometry N” value [5] turn out when B2 was run?
A: 2

B3: Cdc13 OB2 domain C383S (domain or fragment, S. cerevisiae, UniProt P32797 344-495, looked up)
chain: B2 chain with C40S
Q: Does B3 bind [5]?
A: binds
